From patent US12006530B2, “Streptococcal proteases” (priority 2016, dated 2024)

Assays:
[1] = system: porcine IgG; assay: IgG cleavage by IgdE, SDS-PAGE; type: biochemical, pig; conditions: purified polyclonal IgG, reducing SDS-PAGE
Experimental: (A) Schematic illustration of IgdE and the different rIgdE constructs with potential active site residues substitutions and the C-terminal truncation variant. The secretion signal peptide (residues 1-37) is marked in light grey, the transglutaminase domain is boxed and the potential active site residues and substitutions are indicated. (B) 3.3 μM porcine IgG was incubated for 16 h at 37° C. with soluble fractions of E. coli cells expressing different rIgdE constructs. The reaction was analyzed SDS-PAGE under reducing conditions. […] The weak protein band of 37 kDa is a contaminant present in lysate preparation and not related to IgdE activity.
(§1) 0.5 mg/ml of porcine IgG (Sigma) in PBS or of other species (human, goat, cow, horse and mouse; all Sigma) were incubated with either crude extracts of induced E. coli carrying S. suis IgdE constructs mentioned above or 10 nM purified rIgdE for 16 h at 37° C. prior subjection to SDS-PAGE under either reducing or non-reducing conditions.
(§2) Samples for SDS-PAGE were prepared with either reducing or non-reducing sample buffer and heated to 95° C. for 5 min. 12% SDS-PAGE was either stained with Coomassie blue (Sigma), Coomassie Fluor™ Orange Protein Gel Stain (Invitrogen) or blotted to Hybond-P PVDF membrane (GE Healthcare) for western blot analyses. Membranes were blocked with 5% dry milk powder in 0.1% PBS-Tween, followed by incubation with horse-radish peroxidase conjugated antibodies. Goat anti-pig IgG-HRP (Thermo Scientific) and goat anti-porcine IgM-HRP (Thermo Scientific) was diluted 1:25′000 and goat anti-porcine IgA-HRP (Thermo Scientific) was diluted 1:12′500. Membranes were thoroughly washed with 0.1% PBS-Tween prior to development with Amersham ECL Select Western blotting detection reagent (GE Healthcare) according to manufactures instruction and pictured by LAS4000 imaging system (Fujifilm).

[2] = system: human IgG; assay: IgG cleavage by IgdE, SDS-PAGE; type: biochemical; conditions: purified polyclonal IgG, reducing SDS-PAGE
Experimental: (§3) (A) rIgdEagalactiae was incubated with polyclonal IgG of six different species for 18 h at 37° C. and analyzed by SDS-PAGE under reducing conditions. Degradation products are indicated by asterisks (*). Images of different gels have been used to create the figure. (B) rIgdEagalactiae was incubated with human or bovine serum for 18 h in 37° C. and analyzed by SDS-PAGE under reducing conditions. Degradation products are indicated by asterisks (*). (C) Western Blot with crude extracts of rIgdEagalactiae incubated with human and porcine serum for 18 h in 37° C. Membrane was treated with antibodies against human and porcine polyclonal IgG respectively. Degradation products are indicated by asterisks (*). (D) rIgdEagalactiae was incubated with subclasses of human IgG as well as human IgA and IgM for 18 h in 37° C. and analyzed by SDS-PAGE under reducing conditions. Degradation products are indicated by asterisks (*). Images of different gels have been used to create the figure.
as §1, §2

[3] = system: cow IgG; assay: IgG cleavage by IgdE, SDS-PAGE; type: biochemical; conditions: purified polyclonal IgG, reducing SDS-PAGE
Experimental: as §1, §2

[4] = system: goat IgG; assay: IgG cleavage by IgdE, SDS-PAGE; type: biochemical; conditions: purified polyclonal IgG, reducing SDS-PAGE
Experimental: as §1, §2

[5] = system: horse IgG; assay: IgG cleavage by IgdE, SDS-PAGE; type: biochemical; conditions: purified polyclonal IgG, reducing SDS-PAGE
Experimental: as §1, §2

[6] = system: mouse IgG; assay: IgG cleavage by IgdE, SDS-PAGE; type: biochemical; conditions: purified polyclonal IgG, reducing SDS-PAGE
Experimental: as §1, §2

[7] = system: IgG in human serum; assay: Ig cleavage in human serum, anti-IgG Western blot; type: biochemical
Experimental: as §3

[8] = system: monoclonal human IgG1; assay: Cleavage of human IgG subclasses, SDS-PAGE; type: biochemical; conditions: 18 h, 37° C., reducing SDS-PAGE
Experimental: as §3

[9] = system: monoclonal human IgG2; assay: Cleavage of human IgG subclasses, SDS-PAGE; type: biochemical; conditions: 18 h, 37° C., reducing SDS-PAGE
Experimental: as §3

[10] = target: monoclonal human IgG3 (Homo sapiens, UniProt P01860); assay: Cleavage of human IgG subclasses, SDS-PAGE; type: biochemical; conditions: 18 h, 37° C., reducing SDS-PAGE
Experimental: as §3

[11] = target: monoclonal human IgG4 (Homo sapiens, UniProt P01861); assay: Cleavage of human IgG subclasses, SDS-PAGE; type: biochemical; conditions: 18 h, 37° C., reducing SDS-PAGE
Experimental: as §3

[12] = target: T1, human serum IgG1 (Homo sapiens, UniProt P01857); assay: Degradation of human serum IgG1, non-reducing Western blot; type: biochemical; conditions: 18 h at 37° C.
T1 construct: Human serum and monoclonal human IgG1 were incubated in presence (+) or absence (−) of rIgdEagalactiae; from tissue; host or cells: human serum
Experimental: Human serum and monoclonal human IgG1 were incubated in presence (+) or absence (−) of rIgdEagalactiae for 18 h at 37° C. and analyzed by Western blot under non-reducing conditions with a human IgG-specific antibody.

[13] = system: IgG; assay: IgG degrading cysteine protease activity: specificity as summarised; type: biochemical; conditions: summary statement
Description: Typically, polypeptides for use in accordance with the invention display immunoglobulin cysteine protease activity, and in particular IgG degrading cysteine protease activity. Preferably, the polypeptide cleaves IgG in the hinge region and more particularly in the hinge region of the heavy chain. Preferably, cleavage results in production of Fc and Fab fragments of IgG. Preferably the activity is specific for IgG. The IgG degrading cysteine protease activity may be determined by means of a suitable assay. For example, a test polypeptide may be incubated with IgG at a suitable temperature, such as 37° C. The starting materials and the reaction products may then be analysed by SDS PAGE to determine whether the desired IgG cleavage product is present. Typically this cleavage product is a 32 kDa fragment. Typically there is no further degradation of IgG after this first cleavage. The cleavage product may be subjected to N-terminal sequencing to verify that cleavage has occurred in the hinge region of IgG.
The IgG degrading cysteine protease activity of the polypeptides is generally IgG-specific in that the polypeptides may not degrade other classes of Ig, namely IgM, and IgA, when incubated with these immunoglobulins under conditions that permit cleavage of IgG.

[14] = system: porcine IgG; assay: Ig cleavage in porcine plasma or serum, anti-IgG Western blot; type: biochemical, pig
Experimental: (§4) (A) 2% porcine plasma was incubated with (+) or without (−) 10 nM purified rIgdE.
(§5) The reaction was analyzed by anti-porcine IgG, IgM and IgA Western blots under reducing conditions. Only cleavage of IgG was observed (*). (B) 0.5 mg/ml IgG of different species was incubated with (+) or without (−) 10 nM purified rIgdE and analyzed by SDS-PAGE under reducing conditions. No cleavage of IgG derived from any other species than pig (*) was observed. The weak protein band of 37 kDa is a contaminant present in lysate preparation (see lane 2) and not related to IgdE activity. Images of different gels have been assembled into one figure.
as §2, with “Membranes were thoroughly washed with 0.1% PBS-Tween prior to development with Amersham ECL Select Western blotting detection reagent (GE Healthcare) according to manufactures instruction and pictured by LAS4000 imaging system (Fujifilm).” left out

[15] = system: porcine IgA; assay: Ig cleavage in porcine plasma or serum, anti-IgA Western blot; type: biochemical, pig
Experimental: as §4, §5
as §2, with “Membranes were thoroughly washed with 0.1% PBS-Tween prior to development with Amersham ECL Select Western blotting detection reagent (GE Healthcare) according to manufactures instruction and pictured by LAS4000 imaging system (Fujifilm).” left out

[16] = system: rat IgG; assay: IgG cleavage by IgdE, SDS-PAGE; type: biochemical; conditions: purified polyclonal IgG

Chain of monoclonal human IgG4 (P01861 1-327 isoform P01861-1): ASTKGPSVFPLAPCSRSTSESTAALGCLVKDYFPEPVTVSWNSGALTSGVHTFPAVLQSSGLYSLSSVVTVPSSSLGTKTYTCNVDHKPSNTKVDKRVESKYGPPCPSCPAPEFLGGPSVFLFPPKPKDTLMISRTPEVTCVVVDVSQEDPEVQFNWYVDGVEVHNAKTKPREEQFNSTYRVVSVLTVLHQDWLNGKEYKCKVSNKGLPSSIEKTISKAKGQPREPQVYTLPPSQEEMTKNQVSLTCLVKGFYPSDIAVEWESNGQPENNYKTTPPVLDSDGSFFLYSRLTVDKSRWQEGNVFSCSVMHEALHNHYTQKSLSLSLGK
T1 sequence (P01857 1-330 isoform P01857-1): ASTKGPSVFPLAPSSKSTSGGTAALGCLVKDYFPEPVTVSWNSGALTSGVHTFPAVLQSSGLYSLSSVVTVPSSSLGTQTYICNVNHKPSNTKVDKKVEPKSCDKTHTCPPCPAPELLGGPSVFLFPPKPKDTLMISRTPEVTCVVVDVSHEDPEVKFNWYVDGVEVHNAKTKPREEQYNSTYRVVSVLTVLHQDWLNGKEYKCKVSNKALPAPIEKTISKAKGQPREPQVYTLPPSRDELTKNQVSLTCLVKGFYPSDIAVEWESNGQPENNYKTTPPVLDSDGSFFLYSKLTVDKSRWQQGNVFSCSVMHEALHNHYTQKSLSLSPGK
Chain of monoclonal human IgG3 (P01860 1-377 isoform P01860-1): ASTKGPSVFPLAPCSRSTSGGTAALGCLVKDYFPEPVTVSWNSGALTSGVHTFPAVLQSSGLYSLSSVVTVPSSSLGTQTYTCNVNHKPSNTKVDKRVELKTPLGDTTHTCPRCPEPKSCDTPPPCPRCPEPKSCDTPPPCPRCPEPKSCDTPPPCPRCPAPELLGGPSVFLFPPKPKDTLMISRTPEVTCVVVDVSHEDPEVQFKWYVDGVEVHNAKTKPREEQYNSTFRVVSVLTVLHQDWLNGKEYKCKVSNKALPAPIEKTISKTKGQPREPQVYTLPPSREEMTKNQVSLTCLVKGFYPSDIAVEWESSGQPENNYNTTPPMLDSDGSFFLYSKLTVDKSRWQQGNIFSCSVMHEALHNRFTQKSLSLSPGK

B1: IgdEagalactiae: IgdE isolated from S. agalactiae strain CCUG4208, SEQ ID NO: 3 (protein, listed as Streptococcus agalactiae)
chain: NQNNIQETNLVEKNSEDKFIQELNRYKTEIPNFKGFNVWILGDKGYYKNLINLEEIKNIQATLKKERNEEYVFVKLNGKIAHDTTVFLMNKKHKLLKNIEEFKTITQKRLTERGKFPYDTVHSTFEIKDENFIMERLKSSGLSMGKPVDYMGVNGIPIYTKTLSIDNKFAFENNSKDSSYSSNINISEDKIKENDQKILDLIVKSGANNQNLTDEEKVIAFTKYIGEITNYDNEAYRARNVDTEYYRASDLFSVTERKLAMCVGYSVTAARAFNIMGIPSYVVSGKSPQGISHAAVRAYYNRSWHIIDITASTYWKNGNYKTTYSDFIKEYCIDGYDVYDPAKTNNRFKVKYMESNEAFENWIHNNGSKSMLFINESAALKDKKPKDDFVPVTEKEKNELIDKYKKLLSQIPENTQNPGEKNIRDYLKNEYEEILKKDNLFEHEHAEFKESLNLNESFYLQLKKEEKKPSDNLKKEEKPRENSVKERETPAENNDFVSVTEKNNLIDKYKELLSKIPENTQNPGEKNIRNYLEKEYEELLQKDKLFKHEYTEFTKSLNLNETFYSQLKEGEMKLSENPEKGETNTN
[1]
  cleavage of polyclonal porcine IgG (32 kDa degradation product): No degradation product was observed
[2]
  cleavage of polyclonal human IgG (32 kDa degradation product): cleaved
[3]
  cleavage of polyclonal cow IgG: No degradation product was observed
[4]
  cleavage of polyclonal goat IgG: No degradation product was observed
[5]
  cleavage of polyclonal horse IgG: No degradation product was observed
[6]
  cleavage of polyclonal mouse IgG: No degradation product was observed
[7]
  cleavage of IgG in human serum: cleaved IgG in human serum
[8]
  cleavage of monoclonal human IgG1 kappa (32 kDa degradation product): cleaved
  cleavage of monoclonal human IgG1 lambda (32 kDa degradation product): cleaved
[9]
  cleavage of monoclonal human IgG2: No degradation product was observed
[10]
  cleavage of monoclonal human IgG3: No degradation product was observed
[11]
  cleavage of monoclonal human IgG4: No degradation product was observed
[12]
  degradation of human serum IgG1: degrades human serum IgG1 completely to single cleaved IgG1
[13]
  immunoglobulin specificity of the IgG degrading cysteine protease activity: specific for human IgG, and specifically human IgG1

B2: IgdEporcinus: IgdE isolated from S. porcinus strain DSM20725, SEQ ID NO: 5 (protein, listed as Streptococcus porcinus)
chain: AVLARENSNSGQLHPEARQIKAVDFQEFSKKLKEEISENQQFHVFKLGMNNYYRSGIRINELNNLATEHDFILVNDHASHKKYDVPHIFIMNKGDVIVPSKEKYDEQMREVKFAGDQPNAQRQRIHALFEIGLDSNKRQLLNAAGLGTAENTLAKVDGFTIYSHGLTVDNKYYEDYIRFNKNENINITKERFTANDNLIHNLITESTAKVQTNDRDKVKAFVMYVANHTIYDWIAANNAVSNISDVNYYLGSDLFSITERKKAMCVGFSTTAARAFNMLGIPAYVVVGKNAQGVDHATARAYYNGKWHTIDGTGFINDKASRSTIYSENHFYSIGEDSYNIVDVNDEQIAFDKNYMKIDKVFEEWAQKQPTADLLLINKDKSLVPSNYVAYVAPVIVDNNRKGSLTQIYQNLKQVMESSSQKASLTSLLNTATADIAKLQTSSQLTQEDYNQIQNSMKSVLSFFWQLDKDSATNFENSEDYKKYLTETKNAGN
[1]
  cleavage of polyclonal porcine IgG (32 kDa degradation product): cleaved
[2]
  cleavage of polyclonal human IgG (32 kDa degradation product): No degradation product was observed
[3]
  cleavage of polyclonal cow IgG: No degradation product was observed
[4]
  cleavage of polyclonal goat IgG: No degradation product was observed
[5]
  cleavage of polyclonal horse IgG: No degradation product was observed
[6]
  cleavage of polyclonal mouse IgG: No degradation product was observed
[14]
  cleavage of IgG in porcine plasma or serum: cleaved IgG in porcine serum
[15]
  cleavage of IgA in porcine plasma or serum: but not IgM or IgA
[13]
  immunoglobulin specificity of the IgG degrading cysteine protease activity: specific for porcine IgG

B3: IgdEpseudoporcinus: IgdE isolated from S. pseudoporcinus strain ATCC BAA-1381, SEQ ID NO: 9 (protein, listed as Streptococcus pseudoporcinus)
chain: RENENVRQLQSENKQMKAVNLQEFSEKLKGEIAENQQFHIFKLGLNNYYIGGVRINELSDLAKNHDFIMIDNRATHNKYGVPHIIIMNKDDVIVHNQEDYNKEMAELTFAGDKPIQSDSYLPQKKRIHALFEIGLDSNRRQLLNAAGLKTPENSVIELDTFKIYSHGLAVDNKYYDEYSHFNNNTNVNITKQRFTENDNLIHNLITTSTAKDQPTDRDKVKTFVMYVANHTIYDWNAANNAVSNISDVNYYLGSDLFSITERKKAMCVGFSTTAARAFNMLGIPAYVVEGKNAQGVDHATARVYYNGKWHTIDGTGFINGNRTRSTLYTESHFRSVGEDSYQLVGLNEDIPFDRNYMKIDKVYEEWAPKQKTADLLLVNKDKSLVGLDRVAYVEPVYVDKNRQDALTQIYKKLKETMESSSKKNPSSGGFSSLLGSASSDIAKLEGSSQLTQEEYDKIHRSMTSILTFFAQLDKDAAEAFEKGNDYKNYLATTKHAQ
[1]
  cleavage of polyclonal porcine IgG (32 kDa degradation product): cleaved
[2]
  cleavage of polyclonal human IgG (32 kDa degradation product): cleaved
[3]
  cleavage of polyclonal cow IgG: No degradation product was observed
[4]
  cleavage of polyclonal goat IgG: No degradation product was observed
[5]
  cleavage of polyclonal horse IgG: No degradation product was observed
[6]
  cleavage of polyclonal mouse IgG: No degradation product was observed
[16]
  cleavage of polyclonal rat IgG: No degradation product was observed
[14]
  cleavage of IgG in porcine plasma or serum: cleaved IgG in human and porcine serum
[7]
  cleavage of IgG in human serum: cleaved IgG in human and porcine serum
[13]
  immunoglobulin specificity of the IgG degrading cysteine protease activity: specific for porcine IgG
